Measurements from PMC8060482, “Identification of an Invertase With High Specific Activity for Raffinose Hydrolysis and Its Application in Soymilk Treatment” (Frontiers in Microbiology, 2021).

How the values were obtained:
Experiment in all cases: released glucose by glucose oxidase method; Michaelis-Menten fit
Type in all cases: biochemical, Microbacterium trichothecenolyticum
[1] = substrate: OC[C@H]1O[C@H](OC[C@H]2O[C@H](O[C@]3(CO)O[C@H](CO)[C@@H](O)[C@@H]3O)[C@H](O)[C@@H](O)[C@@H]2O)[C@H](O)[C@@H](O)[C@H]1O; details: 50 mM citrate-phosphate pH 6.5, 35 °C, 5 min
[2] = substrate: OC[C@H]1O[C@H](OC[C@H]2O[C@H](OC[C@H]3O[C@H](O[C@]4(CO)O[C@H](CO)[C@@H](O)[C@@H]4O)[C@H](O)[C@@H](O)[C@@H]3O)[C@H](O)[C@@H](O)[C@H]2O)[C@H](O)[C@@H](O)[C@H]1O; details: 50 mM citrate-phosphate pH 6.5, 35 °C, 5 min
[3] = substrate: OC[C@H]1O[C@@](CO)(O[C@H]2O[C@H](CO)[C@@H](O)[C@H](O)[C@H]2O)[C@@H](O)[C@@H]1O; details: 50 mM citrate-phosphate pH 6.5, 35 °C, 5 min, enzyme printed as rInvDz13

B1: InvDz13 (Microbacterium trichothecenolyticum) (protein)
chain: APVAPAAPELQDGPQPTAHTQQAYAPEDDFTAKWTRADARQLKRLSDPTAGSKQNSMPTELTMPAVAQDFPDMSNEQVWVWDSWPLTDENANQYSVNGQEIIFSLVADRNLVFDERHVFAKIGYFYRPAGVPADERPENGGWTYGGLVFDEGVTGKIFPDQSYSHQTQWSGSARISKGGQIKLFFTDVAFYRNEDGSNRKPYDPRIALSVGKVHANKNGVKLTGFDKVTDLLQADGTYYQTGAQNEFFNFRDPFTFEDPAHPGETYMVFEGNSAMPRETATCNEEDLGYREGDPFAESVEQVNASGATYQIGNVGLAKAKNKDLTEWEFLPPLLSANCVTDQTERPQIYMKDGKYYLFTISHRGTFANGIDGPEGVYGFVGDGIRSDYQPMNSGSGLALGNPTNLNFAGGQPFAPDFNQPIGHFQAYSHYVMPGGLVQSFIDTVGTEGDFRRGGTLAPTVKIDIDGASSAVDYAYGDGGLGGYADIPANINVNPGGKVTPLP
notes: natively purified from culture supernatant of strain Dz13 (DEAE-Sepharose, Sephacryl S100); precursor 537 aa, predicted signal peptide 1-35 (secreted enzyme); kinetics of sucrose printed once as rInvDz13, but no recombinant expression described
**Q.** What does the source list for B1?
**A.** Km [1]: 14.2 ± 0.7 mM; kcat [1]: 3944 ± 15.3 s^–1; Km [2]: 65.2 ± 3.07 mM; kcat [2]: 2368.3 ± 7.1 s^–1; Km [3]: 4.5 ± 0.2 mM; kcat [3]: 504 ± 0.1 s^–1
